Measurements reported in the supplement of paper PMC5998384.

Assays:
HeLa Kyoto [1] = experiment: solubility in G1/S (NP-40 vs SDS abundance) (log2 ratio); higher = more soluble; conditions: cell cycle stage: G1/S
HeLa Kyoto [2] = experiment: solubility change mitosis vs G1/S (difference of NP-40 vs SDS log2 ratios) (log2 ratio difference); higher = more soluble in mitosis
HeLa Kyoto [3] = experiment: melting temperature (median over replicates), in situ; higher = more thermally stable
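For melting temperature (median over replicates), in situ in this document: HeLa Kyoto cells synchronized by double thymidine or nocodazole block, proteins quantified by TMT10plex mass spectrometry, three independent biological replicates.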
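For solubility change mitosis vs G1/S (difference of NP-40 vs SDS log2 ratios) in this document: synchronized HeLa Kyoto cells (double thymidine block for G1/S, nocodazole release for mitosis), protein amounts in NP-40 versus SDS lysates quantified by mass spectrometry, three biological replicates.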
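For solubility in G1/S (NP-40 vs SDS abundance) in this document: HeLa Kyoto cells arrested at G1/S by double thymidine block, proteins quantified by TMT10plex mass spectrometry in mild NP-40 versus SDS extracts, three biological replicates.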

Chain of LLPH (chain, as listed by the source): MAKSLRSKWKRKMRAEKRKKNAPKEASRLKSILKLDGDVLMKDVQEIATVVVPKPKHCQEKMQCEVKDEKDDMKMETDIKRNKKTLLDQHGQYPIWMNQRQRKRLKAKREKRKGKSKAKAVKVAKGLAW
Chain of WWC2 (chain, as listed by the source): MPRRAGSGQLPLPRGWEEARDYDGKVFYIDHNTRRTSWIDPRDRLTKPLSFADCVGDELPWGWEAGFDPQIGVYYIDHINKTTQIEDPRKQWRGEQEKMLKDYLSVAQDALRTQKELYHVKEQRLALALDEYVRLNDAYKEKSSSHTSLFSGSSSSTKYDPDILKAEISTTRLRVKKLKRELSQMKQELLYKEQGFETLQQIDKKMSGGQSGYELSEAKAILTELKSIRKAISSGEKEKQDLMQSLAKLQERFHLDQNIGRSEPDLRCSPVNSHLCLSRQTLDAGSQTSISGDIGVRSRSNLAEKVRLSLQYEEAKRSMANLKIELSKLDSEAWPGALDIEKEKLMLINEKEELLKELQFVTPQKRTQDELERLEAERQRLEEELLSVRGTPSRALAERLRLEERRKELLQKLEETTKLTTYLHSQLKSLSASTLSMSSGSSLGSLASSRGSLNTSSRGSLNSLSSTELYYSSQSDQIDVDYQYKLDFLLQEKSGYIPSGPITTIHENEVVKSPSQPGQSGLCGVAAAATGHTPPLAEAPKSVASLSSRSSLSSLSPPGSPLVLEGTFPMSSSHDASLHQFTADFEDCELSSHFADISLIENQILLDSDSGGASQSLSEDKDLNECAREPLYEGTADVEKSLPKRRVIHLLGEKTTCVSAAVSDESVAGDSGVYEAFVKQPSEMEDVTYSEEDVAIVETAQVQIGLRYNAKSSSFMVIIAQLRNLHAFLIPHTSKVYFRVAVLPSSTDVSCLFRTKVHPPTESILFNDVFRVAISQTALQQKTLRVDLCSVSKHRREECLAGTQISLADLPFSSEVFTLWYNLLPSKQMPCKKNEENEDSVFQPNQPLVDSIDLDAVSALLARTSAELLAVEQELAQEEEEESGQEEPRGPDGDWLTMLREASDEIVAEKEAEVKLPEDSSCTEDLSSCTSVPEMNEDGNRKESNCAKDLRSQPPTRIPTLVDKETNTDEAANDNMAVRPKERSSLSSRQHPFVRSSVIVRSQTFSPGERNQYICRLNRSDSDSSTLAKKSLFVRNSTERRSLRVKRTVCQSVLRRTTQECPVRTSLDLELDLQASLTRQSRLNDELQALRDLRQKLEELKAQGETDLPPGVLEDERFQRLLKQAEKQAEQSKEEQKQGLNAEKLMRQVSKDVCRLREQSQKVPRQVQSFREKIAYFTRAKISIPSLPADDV

MSEVSCKKRDDYLEWPEYFMAVAFLSAQRSKDPNSQVGACIVNSENKIVGIGYNGMPNGCSDDVLPWRRTAENKLDTKYPYVCHAELNAIMNKNSTDVKGCSMYVALFPCNECAKLIIQAGIKEVIFMSDKYHDSDEATAARLLFNMAGVTFRKFIPKCSKIVIDFDSINSRPSQKLQ [DCTD]
solubility in G1/S (log2) (HeLa Kyoto [1]): 0.419 | solubility change mitosis (log2) (HeLa Kyoto [2]): 0.0667 | melting temperature (HeLa Kyoto [3]; cell cycle stage: G1/S): 59.8 °C | melting temperature (HeLa Kyoto [3]; cell cycle stage: mitosis): 58.5 °C

SYNE2
solubility in G1/S (log2) (HeLa Kyoto [1]): -0.84 | solubility change mitosis (log2) (HeLa Kyoto [2]): 0.607 | melting temperature (HeLa Kyoto [3]; cell cycle stage: G1/S): 51.1 °C | melting temperature (HeLa Kyoto [3]; cell cycle stage: mitosis): 50.3 °C

MAEPSVESSSPGGSATSDDHEFDPSADMLVHDFDDERTLEEEEMMEGETNFSSEIEDLAREGDMPIHELLSLYGYGSTVRLPEEDEEEEEEEEEGEDDEDADNDDNSGCSGENKEENIKDSSGQEDETQSSNDDPSQSVASQDAQEIIRPRRCKYFDTNSEVEEESEEDEDYIPSEDWKKEIMVGSMFQAEIPVGICRYKENEKVYENDDQLLWDPEYLPEDKVIIFLKDASRRTGDEKGVEAIPEGSHIKDNEQALYELVKCNFDTEEALRRLRFNVKAAREELSVWTEEECRNFEQGLKAYGKDFHLIQANKVRTRSVGECVAFYYMWKKSERYDFFAQQTRFGKKKYNLHPGVTDYMDRLLDESESAASSRAPSPPPTASNSSNSQSEKEDGTVSTANQNGVSSNGPGEILNKEEVKVEGLHINGPTGGNKKPLHADMDTNGYETDNLTTDPKLAHMTARNENDFDEKSERPAKRRRVNSNGKESPGSSEFFQEAVSHGKFEELENTDD [MIER1]
solubility in G1/S (log2) (HeLa Kyoto [1]): 0.00102 | solubility change mitosis (log2) (HeLa Kyoto [2]): -0.0394 | melting temperature (HeLa Kyoto [3]; cell cycle stage: G1/S): 53.4 °C | melting temperature (HeLa Kyoto [3]; cell cycle stage: mitosis): 52.2 °C

MGAPRSLLLALAAGLAVARPPNIVLIFADDLGYGDLGCYGHPSSTTPNLDQLAAGGLRFTDFYVPVSLCTPSRAALLTGRLPVRMGMYPGVLVPSSRGGLPLEEVTVAEVLAARGYLTGMAGKWHLGVGPEGAFLPPHQGFHRFLGIPYSHDQGPCQNLTCFPPATPCDGGCDQGLVPIPLLANLSVEAQPPWLPGLEARYMAFAHDLMADAQRQDRPFFLYYASHHTHYPQFSGQSFAERSGRGPFGDSLMELDAAVGTLMTAIGDLGLLEETLVIFTADNGPETMRMSRGGCSGLLRCGKGTTYEGGVREPALAFWPGHIAPGVTHELASSLDLLPTLAALAGAPLPNVTLDGFDLSPLLLGTGKSPRQSLFFYPSYPDEVRGVFAVRTGKYKAHFFTQGSAHSDTTADPACHASSSLTAHEPPLLYDLSKDPGENYNLLGGVAGATPEVLQALKQLQLLKAQLDAAVTFGPSQVARGEDPALQICCHPGCTPRPACCHCPDPHA [ARSA]
solubility in G1/S (log2) (HeLa Kyoto [1]): 0.664 | solubility change mitosis (log2) (HeLa Kyoto [2]): -0.0336 | melting temperature (HeLa Kyoto [3]; cell cycle stage: G1/S): 55.6 °C | melting temperature (HeLa Kyoto [3]; cell cycle stage: mitosis): 55.6 °C

PIEZO2
solubility in G1/S (log2) (HeLa Kyoto [1]): -0.112 | solubility change mitosis (log2) (HeLa Kyoto [2]): -0.0931 | melting temperature (HeLa Kyoto [3]; cell cycle stage: G1/S): 55.7 °C | melting temperature (HeLa Kyoto [3]; cell cycle stage: mitosis): 54.8 °C

MPVVWPTLLDLSRDECKRILRKLELEAYAGVISALRAQGDLTKEKKDLLGELSKVLSISTERHRAEVRRAVNDERLTTIAHNMSGPNSSSEWSIEGRRLVPLMPRLVPQTAFTVTANAVANAAIQHNASLPVPAETGSKEVVCYSYTSTTSTPTSTPVPSGSIATVKSPRPASPASNVVVLPSGSTVYVKSVSCSDEDEKPRKRRRTNSSSSSPVVLKEVPKAVVPVSKTITVPVSGSPKMSNIMQSIANSLPPHMSPVKITFTKPSTQTTNTTTQKVIIVTTSPSSTFVPNILSKSHNYAAVTKLVPTSVIASTTQKPPVVITASQSSLVSNSSSGSSSSTPSPIPNTVAVTAVVSSTPSVVMSTVAQGVSTSAIKMASTRLPSPKSLVSAPTQILAQFPKQHQQSPKQQLYQVQQQTQQQVAQPSPVSHQQQPQQSPLPPGIKPTIQIKQESGVKIITQQVQPSKILPKPVTATLPTSSNSPIMVVSSNGAIMTTKLVTTPTGTQATYTRPTVSPSIGRMAATPGAATYVKTTSGSIITVVPKSLATLGGKIISSNIVSGTTTKITTIPMTSKPNVIVVQKTTGKGTTIQGLPGKNVVTTLLNAGGEKTIQTVPTGAKPAILTATRPITKMIVTQPKGIGSTVQPAAKIIPTKIVYGQQGKTQVLIKPKPVTFQATVVSEQTRQLVTETLQQASRVAEAGNSSIQEGKEEPQNYTDSSSSSTESSQSSQDSQPVVHVIASRRQDWSEHEIAMETSPTIIYQDVSSESQSATSTIKALLELQQTTVKEKLESKPRQPTIDLSQMAVPIQMTQEKRHSPESPSIAVVESELVAEYITTERTDEGTEVAFPLLVSHRSQPQQPSQPQRTLLQHVAQSQTATQTSVVVKSIPASSPGAITHIMQQALSSHTAFTKHSEELGTEEGEVEEMDTLDPQTGLFYRSALTQSQSAKQQKLSQPPLEQTQLQVKTLQCFQTKQKQTIHLQADQLQHKLPQMPQLSIRHQKLTPLQQEQAQPKPDVQHTQHPMVAKDRQLPTLMAQPPQTVVQVLAVKTTQQLPKLQQAPNQPKIYVQPQTPQSQMSLPASSEKQTASQVEQPIITQGSSVTKITFEGRQPPTVTKITGGSSVPKLTSPVTSISPIQASEKTAVSDILKMSLMEAQIDTNVEHMIVDPPKKALATSMLTGEAGSLPSTHMVVAGMANSTPQQQKCRESCSSPSTVGSSLTTRKIDPPAVPATGQFMRIQNVGQKKAEESPAEIIIQAIPQYAIPCHSSSNVVVEPSGLLELNNFTSQQLDDEETAMEQDIDSSTEDGTEPSPSQSSAERS [EMSY]
solubility in G1/S (log2) (HeLa Kyoto [1]): -0.0948 | solubility change mitosis (log2) (HeLa Kyoto [2]): 0.0269 | melting temperature (HeLa Kyoto [3]; cell cycle stage: G1/S): 44.6 °C | melting temperature (HeLa Kyoto [3]; cell cycle stage: mitosis): 50.6 °C

MALTVDVAGPAPWGFRITGGRDFHTPIMVTKVAERGKAKDADLRPGDIIVAINGESAEGMLHAEAQSKIRQSPSPLRLQLDRSQATSPGQTNGDSSLEVLATRFQGSVRTYTESQSSLRSSYSSPTSLSPRAGSPFSPPPSSSSLTGEAAISRSFQSLACSPGLPAADRLSYSGRPGSRQAGLGRAGDSAVLVLPPSPGPRSSRPSMDSEGGSLLLDEDSEVFKMLQENREGRAAPRQSSSFRLLQEALEAEERGGTPAFLPSSLSPQSSLPASRALATPPKLHTCEKCSTSIANQAVRIQEGRYRHPGCYTCADCGLNLKMRGHFWVGDELYCEKHARQRYSAPATLSSRA [PDLIM2]
solubility in G1/S (log2) (HeLa Kyoto [1]): 0.17 | solubility change mitosis (log2) (HeLa Kyoto [2]): -0.043 | melting temperature (HeLa Kyoto [3]; cell cycle stage: G1/S): 55.6 °C | melting temperature (HeLa Kyoto [3]; cell cycle stage: mitosis): 53.8 °C

MALLFLLPLVMQGVSRAEMGTADLGPSSVPTPTNVTIESYNMNPIVYWEYQIMPQVPVFTVEVKNYGVKNSEWIDACINISHHYCNISDHVGDPSNSLWVRVKARVGQKESAYAKSEEFAVCRDGKIGPPKLDIRKEEKQIMIDIFHPSVFVNGDEQEVDYDPETTCYIRVYNVYVRMNGSEIQYKILTQKEDDCDEIQCQLAIPVSSLNSQYCVSAEGVLHVWGVTTEKSKEVCITIFNSSIKGSLWIPVVAALLLFLVLSLVFICFYIKKINPLKEKSIILPKSLISVVRSATLETKPESKYVSLITSYQPFSLEKEVVCEEPLSPATVPGMHTEDNPGKVEHTEELSSITEVVTTEENIPDVVPGSHLTPIERESSSPLSSNQSEPGSIALNSYHSRNCSESDHSRNGFDTDSSCLESHSSLSDSEFPPNNKGEIKTEGQELITVIKAPTSFGYDKPHVLVDLLVDDSGKESLIGYRPTEDSKEFS [IFNGR1]
solubility in G1/S (log2) (HeLa Kyoto [1]): 0.103 | solubility change mitosis (log2) (HeLa Kyoto [2]): -0.126 | melting temperature (HeLa Kyoto [3]; cell cycle stage: mitosis): 55.3 °C

MFHGIPATPGIGAPGNKPELYEEVKLYKNAREREKYDNMAELFAVVKTMQALEKAYIKDCVSPSEYTAACSRLLVQYKAAFRQVQGSEISSIDEFCRKFRLDCPLAMERIKEDRPITIKDDKGNLNRCIADVVSLFITVMDKLRLEIRAMDEIQPDLRELMETMHRMSHLPPDFEGRQTVSQWLQTLSGMSASDELDDSQVRQMLFDLESAYNAFNRFLHA [VPS28]
solubility in G1/S (log2) (HeLa Kyoto [1]): 0.19 | solubility change mitosis (log2) (HeLa Kyoto [2]): 0.014 | melting temperature (HeLa Kyoto [3]; cell cycle stage: G1/S): 51.5 °C

MAPLRFSANLSWLFPELSGLPARVRAAGSSGFEAVEVAWPYAETPEALARAAREAGLRLVLINTPPGDQEKGEMGLGAVPGRQAAFREGLEQAVRYAKALGCPRIHLMAGRVPQGADRIAVKAEMEAVFLENLRHAAGVLAQEDLVGLLEPINTRITDPQYFLDTPQQAAAILQKVGRPNLQLQMDIFHWQIMDGNLTGNIREFLPIVGHVQVAQVPGRGEPSSPGELNFPYLFQLLEDEGYKGFVGCEYQPRGDTVEGLSWLRSYWDRRGHPEAGQ [HYI]
solubility in G1/S (log2) (HeLa Kyoto [1]): 0.344 | solubility change mitosis (log2) (HeLa Kyoto [2]): 0.234 | melting temperature (HeLa Kyoto [3]; cell cycle stage: G1/S): 55.2 °C | melting temperature (HeLa Kyoto [3]; cell cycle stage: mitosis): 54.7 °C

WWC2
solubility in G1/S (log2) (HeLa Kyoto [1]): -0.102 | solubility change mitosis (log2) (HeLa Kyoto [2]): -0.0226 | melting temperature (HeLa Kyoto [3]; cell cycle stage: G1/S): 51.1 °C | melting temperature (HeLa Kyoto [3]; cell cycle stage: mitosis): 49.9 °C

LLPH
solubility in G1/S (log2) (HeLa Kyoto [1]): -1.23 | solubility change mitosis (log2) (HeLa Kyoto [2]): 1.03 | melting temperature (HeLa Kyoto [3]; cell cycle stage: G1/S): 58.7 °C | melting temperature (HeLa Kyoto [3]; cell cycle stage: mitosis): 55.8 °C
